Here are results for nine molecules from US20170174769A1 (Regeneron, published 2017).

Assay [1] addresses T1, full-length human KLB on HEK293/hKLB/SRE-luc cells (human, UniProt Q86Z14 1-1044).
T1 construct: amino acids 1-1044 of NP_783864.1
T1 sequence: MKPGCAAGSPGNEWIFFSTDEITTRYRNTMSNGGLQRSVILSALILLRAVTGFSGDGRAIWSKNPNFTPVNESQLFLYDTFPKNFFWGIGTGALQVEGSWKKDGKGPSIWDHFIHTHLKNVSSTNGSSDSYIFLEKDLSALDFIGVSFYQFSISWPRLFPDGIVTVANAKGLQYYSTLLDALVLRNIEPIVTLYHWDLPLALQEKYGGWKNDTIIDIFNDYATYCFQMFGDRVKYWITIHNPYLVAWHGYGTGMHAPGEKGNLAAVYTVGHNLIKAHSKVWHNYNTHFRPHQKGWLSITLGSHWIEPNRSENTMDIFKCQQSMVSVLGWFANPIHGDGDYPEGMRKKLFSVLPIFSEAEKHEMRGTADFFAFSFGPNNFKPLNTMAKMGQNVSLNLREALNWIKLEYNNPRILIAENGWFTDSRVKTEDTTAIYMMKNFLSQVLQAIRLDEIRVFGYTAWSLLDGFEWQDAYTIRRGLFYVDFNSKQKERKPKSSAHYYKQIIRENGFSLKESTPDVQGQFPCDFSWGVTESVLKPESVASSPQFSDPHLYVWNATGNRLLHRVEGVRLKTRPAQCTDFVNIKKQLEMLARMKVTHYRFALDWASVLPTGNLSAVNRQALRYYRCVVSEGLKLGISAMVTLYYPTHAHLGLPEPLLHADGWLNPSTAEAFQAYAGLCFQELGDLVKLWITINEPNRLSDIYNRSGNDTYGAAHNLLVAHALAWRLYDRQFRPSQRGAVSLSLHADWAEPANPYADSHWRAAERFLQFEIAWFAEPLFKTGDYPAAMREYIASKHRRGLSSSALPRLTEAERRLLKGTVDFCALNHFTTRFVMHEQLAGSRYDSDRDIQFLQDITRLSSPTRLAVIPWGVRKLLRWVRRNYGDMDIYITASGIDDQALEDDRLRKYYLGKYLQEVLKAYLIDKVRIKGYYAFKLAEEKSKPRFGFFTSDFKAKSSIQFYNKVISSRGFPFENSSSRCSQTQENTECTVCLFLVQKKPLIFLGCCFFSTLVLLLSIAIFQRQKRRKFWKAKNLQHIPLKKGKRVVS
In words: FACS on stable HEK293 cells. Here is the method: (§1) To determine binding specificity of the monoclonal anti-KLB/FGFR1c antibodies, the antibodies were tested in a fluorescence-activated cell sorting (FACS) binding assay to cell lines expressing human FGFR1c, human KLB, and both human FGFR1c and human KLB. HEK293 cell lines were generated that stably express full-length human FGFR1c (hFGFR1c; SEQ ID NO:433) or full-length human KLB (hKLB; SEQ ID NO:434) or both human FGFR1c and human KLB, along with a luciferase reporter [SRE (serum response element)-luciferase, SA Bioscience, #CLS-010L]. The resulting cell lines, referred to as HEK293/hFGFR1c/SRE-luc, HEK293/hKLB/SRE-luc, and HEK293/hKLB/hFGFR1c/SRE-luc, respectively, were maintained in DMEM supplemented with 10% FBS, NEAA, penicillin/streptomycin, 1 μg/mL puromycin and […] hygromycin B, 1 μg/mL puromycin and 500 μg/mL G418, or all three antibiotics.
(§2) For the FACS analysis, HEK293 parental, HEK293/hFGFR1c/SRE-luc, HEK293/hKLB/SRE-luc, and HEK293/hKLB/hFGFR1c/SRE-luc cells were dissociated and plated onto 96-well v-bottom plates at 5 x 10⁵ cells/well in PBS containing 1% FBS. […] Cells were filtered and subsequently analyzed on a Hypercyte Flow Cytometer (Intellicyt Corp.). Unstained and secondary antibody alone controls were also tested for binding to all cell lines. The results were analyzed using FlowJo version 9.52 software and geometric mean (Geom. Mean) of fluorescence for viable cells was determined. Geom. mean of fluorescence for each antibody was then normalized to Geom. mean of unstained cells to obtain relative binding of antibody (binding ratios) per each cell type.

Assay [2] has as its target T2, full-length human FGFR1c on HEK293/hFGFR1c/SRE-luc cells (human, UniProt P11362 22-822).
T2 construct: amino acids 1-733 of NP_075593
In words: FACS on stable HEK293 cells. Here is the method: as §1, §2

The target in assay [3] is T3, human KLB and human FGFR1c co-expressed on HEK293/hKLB/hFGFR1c/SRE-luc cells (human, UniProt Q86Z14 1-1044; P11362 22-822).
T3 construct: two receptors co-expressed on one cell line; also called KLB/FGFR1c coreceptor; FGF21R
In words: FACS on stable HEK293 cells. The method, then: as §1, §2

The target of assay [4] is M. fascicularis KLB and human FGFR1c co-expressed on HEK293/MfKLB/hFGFR1c/SRE-Luc cells (M. fascicularis; human, UniProt A0A2K5WB58 1-1044). Description: cell-based or functional assay.

T2 sequence (P11362 other isoform, or with tags, fused parts or gaps limits assumed): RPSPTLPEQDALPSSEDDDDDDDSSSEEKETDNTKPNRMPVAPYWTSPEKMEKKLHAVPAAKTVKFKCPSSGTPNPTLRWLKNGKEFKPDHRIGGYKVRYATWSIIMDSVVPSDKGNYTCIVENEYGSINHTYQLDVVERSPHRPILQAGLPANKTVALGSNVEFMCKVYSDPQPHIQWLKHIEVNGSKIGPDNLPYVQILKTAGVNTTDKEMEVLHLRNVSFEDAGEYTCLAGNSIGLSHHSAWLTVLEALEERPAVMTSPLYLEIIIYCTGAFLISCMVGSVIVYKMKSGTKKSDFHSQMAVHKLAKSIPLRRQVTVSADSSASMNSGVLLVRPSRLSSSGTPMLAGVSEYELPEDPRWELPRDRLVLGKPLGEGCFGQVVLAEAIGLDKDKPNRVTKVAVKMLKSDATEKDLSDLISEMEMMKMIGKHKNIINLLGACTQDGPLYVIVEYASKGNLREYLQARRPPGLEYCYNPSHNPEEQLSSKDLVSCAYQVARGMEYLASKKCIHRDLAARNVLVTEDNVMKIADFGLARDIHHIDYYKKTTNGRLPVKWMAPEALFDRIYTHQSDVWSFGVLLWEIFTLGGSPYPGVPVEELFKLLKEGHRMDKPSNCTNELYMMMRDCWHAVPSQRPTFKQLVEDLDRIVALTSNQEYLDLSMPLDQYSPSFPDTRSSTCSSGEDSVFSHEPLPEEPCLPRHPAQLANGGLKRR

B1: H4H8880P (antibody, V domains shown)
VH: EVQLVESGGGVVQPGGSLRLSCAASGFTFSLYAMSWVRQAPGKGLEWVSAISGSAHGAYYADSVKGRFTISRDNSKNSLYLQMNSLRAEDTAIYYCAKDLVIAVAGTFDYWGQGTLVTVSS
VL: DIQMTQSPSSLSASVGDRVTITCRASQIISTYLNWYQQKPGKAPKILIYTASSLKSGVPSRFSGSGSGTDFTLTISSLQPEDFATYYCQQTYSSPRFTFGPGTKVDIK
notes: human IgG4 Fc (H4H prefix)
With B1, the “binding ratio to unstained cells” value in assay [1] came to 14 fold; in assay [2], 2 fold; in assay [3], 32 fold. For the same molecule, the “IC50, inhibition of 10 nM mfFGF21” value in assay [4] was 120 pM. The “Maximum Inhibition (%) of 10 nM mfFGF21” value in assay [4] is 39%.

B2: H4H8881P (antibody, V domains shown)
VH: QVQLVQSGAEVKKPGASVKVSCKASGYTFTSYVIHWVRQAPGQRLEWMGWSNAANGDTKYSQEFQDRVTFTRDTSASTAYMELSSLRSEDMAVYYCARWNWNYGAFDIWGQGTMVTVSS
VL: DIQMTQSPSSLSASVGDRVTITCQASQDINNYLHWYQQKSGKAPNLLIYDASILETGVPSRFSGSGSGTDFTFTISSLQPEDIATYYCQQYDNLPYTFGQGTKLEIK
notes: human IgG4 Fc (H4H prefix)
B2: in assay [1], the “binding ratio to unstained cells” value is 15 fold. For the same molecule, the “binding ratio to unstained cells” value in assay [2] came to 2 fold. The “binding ratio to unstained cells” value in assay [3] is 35 fold. Besides, in assay [4], the “EC50, SRE-luc activation without ligand” value came out at 20 pM; the “IC50, inhibition of 10 nM mfFGF21” value stood at 46 pM; the “Maximum Activation (%) without ligand” value is 3%; the “Maximum Inhibition (%) of 10 nM mfFGF21” value came out at 77%.

B3: H4H8852P (antibody, V domains shown)
VH: QVQLQESGPGLVKPSETLSLTCTVSGGSISSYYWSWIRQPPGKGLEWIGYIYSSGIIKYNPSLKSRVTISADTSKNQFSLKLSSVTAADTAVYYCARHGIFGVMEYFQRWGQGTLVTVSS
VL: DIQMTQSPSSLSASIGDRVTITCQASQDIGNFLNWYQQKPGKAPTLLIYDASNMETGVPSRFSGSGSGTYFTFTISSLQPEDVATYYCQQYDNLPLTFGGGTKVEIK
notes: human IgG4 Fc (H4H prefix)
Take B3: the “binding ratio to unstained cells” value in assay [1] came out at 7 fold. Further, the “binding ratio to unstained cells” value in assay [2] was determined as 1 fold. Also, in assay [3], the “binding ratio to unstained cells” value is 33 fold. Also, in assay [4], the “EC50, SRE-luc activation without ligand” value came to 46 pM; the “IC50, inhibition of 10 nM mfFGF21” value came to 470 pM; the “Maximum Activation (%) without ligand” value was 5%; the “Maximum Inhibition (%) of 10 nM mfFGF21” value worked out at 101%.

B4: H4H8856P (antibody, V domains shown)
VH: QVQLQESGPGLVKPSETLSLTCTVSGGSISSYYWSWIRQPPGKGLEWIAYIYYSGITKYNPSLKSRVTISADTSKNQFSLKLSSVTAADTAVYYCARHGIFGVMEYFQRWGQGTLVTVSS
VL: DIQMTQSPSSLSASIGDRVTITCQASQDISNFLNWYQQKPGKAPTLLIYDVSNMETGVPSRFSGSGYGTDFTLTISSLKPEDIATYYCQQYDNIPLTFGGGTKVEIK
notes: human IgG4 Fc (H4H prefix)
Take B4: the “binding ratio to unstained cells” value in assay [1] is 5 fold. Also, the “binding ratio to unstained cells” value in assay [2] was found to be 1 fold. Besides, the “binding ratio to unstained cells” value in assay [3] was determined as 30 fold. For the same molecule, in assay [4], the “EC50, SRE-luc activation without ligand” value is 180 pM; the “IC50, inhibition of 10 nM mfFGF21” value amounted to 790 pM; the “Maximum Activation (%) without ligand” value amounted to 5%; the “Maximum Inhibition (%) of 10 nM mfFGF21” value came out at 91%.

B5: H4H8871P (antibody, V domains shown)
VH: QVQLQESGPGLVKPSETLSLTCTVSGASISSYYWSWIRQPPGKGLEWIGYIYSSGIIKYNPSLKSRVTISADTSKNQFSLKLSSVTAADTAVYYCARHGIFGVMEYFQRWGQGTLVTVSS
VL: DIQMTQSPSSLSASIGDRVTITCQASQDIGNFLNWYHQKPGKAPTLLIYDASNMETGVPSRFRGSGSGTYFTFIISSLQPEDVATYYCQQYDNLPLTFGGGTKVEIK
notes: human IgG4 Fc (H4H prefix)
B5: the “binding ratio to unstained cells” value in assay [1] was 7 fold. The “binding ratio to unstained cells” value in assay [2] was determined as 1 fold. In addition, the “binding ratio to unstained cells” value in assay [3] worked out at 33 fold. Besides, in assay [4], the “EC50, SRE-luc activation without ligand” value is 130 pM; the “IC50, inhibition of 10 nM mfFGF21” value came to 390 pM; the “Maximum Activation (%) without ligand” value is 4%; the “Maximum Inhibition (%) of 10 nM mfFGF21” value came to 92%.

B6: H1H8897P (antibody, V domains shown)
VH: QVQLVESGGGLVKPGGSLRLSCAAAGFTFSDYYMSWIRQAPGQGLEWVSYISPSGSTTYYADSVQGRFTISRDNAKSSLYLQMNSLRAEDTAVYYCARTGIQLWSVYFDYWGQGTLVTVSS
VL: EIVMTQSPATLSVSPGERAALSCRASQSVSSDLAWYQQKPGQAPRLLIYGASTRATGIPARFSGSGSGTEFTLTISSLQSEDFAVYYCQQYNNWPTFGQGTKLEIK
notes: H1H Fc prefix (human Fc)
Turning to B6, the figures for the “binding ratio to unstained cells” value in assay [1], in assay [2] and in assay [3] were 1 fold, 1 fold and 8 fold, respectively. In addition, in assay [4], the “IC50, inhibition of 10 nM mfFGF21” value came out at 5200 pM. The “Maximum Inhibition (%) of 10 nM mfFGF21” value in assay [4] was determined as 101%.

B7: H1H8898P (antibody, V domains shown)
VH: QVQLVESGGGLVKPGGSLRLSCAASGFIFSDYYMSWIRQAPGKGLDWISYISPSGSTIYYADSVKGRFTISRDNAKNSLYLQMNSLRADDTAVYYCARTGIQLWSVYFDYWGQGTLVTVSS
VL: EIVMTQSPATLSVSPGERATLSCRASQSVGSNLAWYQQKPGQAPRLLIYGASTRANGIPARFSGSGSGTEFTLTISGLQSEDFAVYYCQQYNNWPTFGQGTKLEIK
notes: H1H Fc prefix (human Fc)
Regarding B7, the figures for the “binding ratio to unstained cells” value in assay [1], in assay [2] and in assay [3] were 1 fold, 1 fold and 8 fold, respectively. Further, the “IC50, inhibition of 10 nM mfFGF21” value in assay [4] amounted to 12000 pM. For the same molecule, the “Maximum Inhibition (%) of 10 nM mfFGF21” value in assay [4] was found to be 97%.

B8: H4H8837P (antibody, V domains shown)
VH: QVQLVESGGGVVQPGRSLRLSCAASGFTFNSYAMHWVRQAPGMGLEWVAVISSDGSNKYYADSVRGRFTVSRDNSKNTLYLQMNSLRSEDTAVYYCAKDGRGYSSFSHFGMDVWGQGTTVTVSS
VL: DIQMTQSPSTLSASVGDRVTITCRASQSIGSWLAWYQQKPGKAPKLLIYKTSSLESGVPSRFSGSGSGTEFTLTISSLQPDDFASYYCQQYNSYSFGQGTKVEIK
notes: human IgG4 Fc (H4H prefix)
As for B8, the figures for the “binding ratio to unstained cells” value in assay [1], in assay [2] and in assay [3] were 13 fold, 2 fold and 33 fold, respectively. The “IC50, inhibition of 10 nM mfFGF21” value in assay [4] turned out to be 89 pM. Besides, the “Maximum Inhibition (%) of 10 nM mfFGF21” value in assay [4] stood at 51%.

B9: H4H8878P (antibody, V domains shown)
VH: QVQLVESGGGVVQPGRSLRLSCAASGFTLNTYGMHWIRQTPGKGLEWVSLISYDETKEYYVDSVKGRFTISRDNSKNTLYLQMNSVRVEDTAVYYCAKPLTGSTDYYYGLDVWGQGTTVTVSS
VL: DIQMTQSPSYVSASVGDRVIITCRASQDISSWLAWYQQKPGKAPKLLIYVTSSLESGVPSRFSGSGSGTDFTLTISGLQPEDFATYYCQQVKSFPPTFGPGTKVDIK
notes: human IgG4 Fc (H4H prefix)
Turning to B9, the “binding ratio to unstained cells” value was found to be 11 fold in assay [1], 2 fold in assay [2] and 35 fold in assay [3]. In addition, the “IC50, inhibition of 10 nM mfFGF21” value in assay [4] amounted to 120 pM. Moreover, the “Maximum Inhibition (%) of 10 nM mfFGF21” value in assay [4] was 38%.
